Source: article PMC6423188, “HYNIC and DOMA conjugated radiolabeled bombesin analogs as receptor-targeted probes for scintigraphic detection of breast tumor” (EJNMMI Research, 2019)
Read-outs that look alike come from different tables or passages of the source. Where a SMILES comes first, the peptide text is derived from it.

Assays:
In vivo biodistribution = assay: In vivo biodistribution; set-up: species or system mouse; conditions: BALB/c, mouse, in vivo, total radioactivity
Outline: (§1)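 BALB/c mice immunosuppressed with cyclosporine-A (30 mg/kg/day i.p.) bore subcutaneous MDA-MB-231 tumours (~0.5 cm); ^99mTc-bombesin analogs given i.v. via tail vein, three mice per group. Organs excised at 5, 30, 60 and 120 min and gamma-counted as decay-corrected %IA/g; blocking used 0.03 nmol tracer (2 MBq) plus 25 nmol unlabelled BN peptide, read at 60 and 120 min.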

[1] = test system: MDA-MB-231 tumor-bearing mice; assay: In vivo biodistribution; set-up: species or system mouse; conditions: BALB/c, mouse, in vivo, iv
Outline: as §1

physchem = format: physicochemical; conditions: buffer or solvent, pH 7.4
Protocol: In vitro radiochemical stability of ^99mTc-BN1/^99mTc-BN2/^99mTc-BN3 and ^99mTc-BN4, ^99mTc-BNS were assessed by incubating HPLC purified radiopeptides in phosphate buffer saline (PBS at pH 7.4) and freshly collected rat serum for 1–24 h at […]. Then, 90 μL of radiolabeled peptide ^99mTc-BN1/^99mTc-BN2/^99mTc-BN3/^99mTc-BN4/^99mTc-BNS solution were incubated under agitation at 37 °C with either 1.0 mL saline or fresh rat serum, and the mixtures were incubated at 37 °C for 24 h. Samples were periodically withdrawn from the mixture at 0, 2, 4, 6, 8, 12, and 24 h incubation period and analyzed by ITLC. In the case of rat serum, the aliquot was added to 100 μL 50% trifluoroacetic acid (TFA). After centrifugation (3000 rpm), the supernatant was analyzed by ITLC using acetone as the developing solvent; 10 μL of this mixture was taken at each time point, added to a strip ITLC whereby the percentage of ^99mTc-BN1/^99mTc-BN2/^99mTc-BN3/^99mTc-BN4/^99mTc-BNS was determined using gamma counter.
In vitro stability of ^99mTc-labeled bombesin analogs incubated at 37 °C with either freshly collected rat serum or normal saline were monitored up to 24 h. […] The new radiolabeled peptide conjugates were stable up to 24 h post labeling period at room temperature, with no observable degradation or transchelation to serum proteins.

CCCC[C@H](NC(=O)[C@@H](Cc1ccc(O)cc1)NC(=O)[C@H](Cc1c[nH]cn1)NC(=O)[C@H]1CCCN1C(=O)[C@@H](NC(=O)[C@H](C)NC(=O)[C@H](Cc1c[nH]c2ccccc12)NC(=O)[C@H](CCC(N)=O)NC(=O)CCCNC(=O)CN1CCNCCNCCNCC1)C(C)C)C(N)=O [99mTc-BN4, ^99mTc-DOMA-GABA-[Pro^11Tyr^13Nle^14]-BN(7-14)NH2, metal not drawn] (HELM PEPTIDE1{[O=C(CN1CCNCCNCCNCC1)[*:2]].[O=C(CCCN[*:1])[*:2]].Q.W.A.V.[dP].H.[dY].[Nle].[am]}$$$$V2.0)
tissue uptake at 5 min (In vivo biodistribution; iv, Blood uptake): 0.42 ± 0.01 %ID/g
tissue uptake at 0.5 h (In vivo biodistribution; iv, Blood uptake): 0.81 ± 0.01 %ID/g
tissue uptake at 1 h (In vivo biodistribution; iv, Blood uptake): 0.42 ± 0.03 %ID/g
tissue uptake at 2 h (In vivo biodistribution; iv, Blood uptake): 0.17 %ID/g
tissue uptake at 5 min (In vivo biodistribution; iv, Heart uptake): 0.73 ± 0.03 %ID/g
tissue uptake at 0.5 h (In vivo biodistribution; iv, Heart uptake): 0.67 ± 0.02 %ID/g
tissue uptake at 1 h (In vivo biodistribution; iv, Heart uptake): 0.25 ± 0.02 %ID/g
tissue uptake at 2 h (In vivo biodistribution; iv, Heart uptake): 0.09 ± 0.04 %ID/g
tissue uptake at 5 min (In vivo biodistribution; iv, Intestine uptake): 1.01 ± 0.06 %ID/g
tissue uptake at 0.5 h (In vivo biodistribution; iv, Intestine uptake): 1.6 ± 0.05 %ID/g
tissue uptake at 1 h (In vivo biodistribution; iv, Intestine uptake): 2.15 ± 0.21 %ID/g
tissue uptake at 2 h (In vivo biodistribution; iv, Intestine uptake): 0.82 ± 0.05 %ID/g
tissue uptake at 5 min (In vivo biodistribution; iv, Kidney uptake): 2.17 ± 0.11 %ID/g
tissue uptake at 0.5 h (In vivo biodistribution; iv, Kidney uptake): 3.95 ± 0.21 %ID/g
tissue uptake at 1 h (In vivo biodistribution; iv, Kidney uptake): 3.1 ± 0.17 %ID/g
tissue uptake at 2 h (In vivo biodistribution; iv, Kidney uptake): 2.1 ± 0.13 %ID/g
tissue uptake at 5 min (In vivo biodistribution; iv, Liver uptake): 0.4 ± 0.03 %ID/g
tissue uptake at 0.5 h (In vivo biodistribution; iv, Liver uptake): 0.32 ± 0.13 %ID/g
tissue uptake at 1 h (In vivo biodistribution; iv, Liver uptake): 0.28 ± 0.12 %ID/g
tissue uptake at 2 h (In vivo biodistribution; iv, Liver uptake): 0.17 ± 0.03 %ID/g
tissue uptake at 5 min (In vivo biodistribution; iv, Lung uptake): 1.07 ± 0.14 %ID/g
tissue uptake at 0.5 h (In vivo biodistribution; iv, Lung uptake): 0.82 ± 0.03 %ID/g
tissue uptake at 1 h (In vivo biodistribution; iv, Lung uptake): 0.7 ± 0.02 %ID/g
tissue uptake at 2 h (In vivo biodistribution; iv, Lung uptake): 0.25 ± 0.11 %ID/g
tissue uptake at 5 min (In vivo biodistribution; iv, Muscle uptake): 0.26 ± 0.02 %ID/g
tissue uptake at 0.5 h (In vivo biodistribution; iv, Muscle uptake): 0.32 ± 0.04 %ID/g
tissue uptake at 1 h (In vivo biodistribution; iv, Muscle uptake): 0.25 ± 0.02 %ID/g
tissue uptake at 2 h (In vivo biodistribution; iv, Muscle uptake): 0.1 ± 0.01 %ID/g
tissue uptake at 5 min (In vivo biodistribution; iv, Pancreas uptake): 2.88 ± 0.11 %ID/g
tissue uptake at 0.5 h (In vivo biodistribution; iv, Pancreas uptake): 4.49 ± 0.03 %ID/g
tissue uptake at 1 h (In vivo biodistribution; iv, Pancreas uptake): 3.75 ± 0.06 %ID/g
tissue uptake at 2 h (In vivo biodistribution; iv, Pancreas uptake): 1.1 ± 0.04 %ID/g
tissue uptake at 5 min (In vivo biodistribution; iv, Spleen uptake): 0.62 ± 0.04 %ID/g
tissue uptake at 0.5 h (In vivo biodistribution; iv, Spleen uptake): 0.56 ± 0.01 %ID/g
tissue uptake at 1 h (In vivo biodistribution; iv, Spleen uptake): 0.24 ± 0.01 %ID/g
tissue uptake at 2 h (In vivo biodistribution; iv, Spleen uptake): 0.17 ± 0.02 %ID/g
tissue uptake at 5 min (In vivo biodistribution; iv, Stomach uptake): 0.47 ± 0.02 %ID/g
tissue uptake at 0.5 h (In vivo biodistribution; iv, Stomach uptake): 0.51 ± 0.04 %ID/g
tissue uptake at 2 h (In vivo biodistribution; iv, Stomach uptake): 0.12 ± 0.01 %ID/g
tissue uptake at 5 min (In vivo biodistribution; iv, Tumor uptake): 1.3 ± 0.01 %ID/g
tissue uptake at 0.5 h (In vivo biodistribution; iv, Tumor uptake): 3.32 ± 0.01 %ID/g
tissue uptake at 1 h (In vivo biodistribution; iv, Tumor uptake): 2.85 ± 0.02 %ID/g
tissue uptake at 2 h (In vivo biodistribution; iv, Tumor uptake): 1.31 ± 0.03 %ID/g
tissue to tissue ratio at 5 min (In vivo biodistribution; iv, tumor/blood ratio): 3
tissue to tissue ratio at 0.5 h (In vivo biodistribution; iv, tumor/blood ratio): 4.09
tissue to tissue ratio at 1 h (In vivo biodistribution; iv, tumor/blood ratio): 6.78
tissue to tissue ratio at 2 h (In vivo biodistribution; iv, tumor/blood ratio): 7.7
tissue to tissue ratio at 5 min (In vivo biodistribution; iv, tumor/kidney ratio): 0.59
tissue to tissue ratio at 0.5 h (In vivo biodistribution; iv, tumor/kidney ratio): 0.84
tissue to tissue ratio at 1 h (In vivo biodistribution; iv, tumor/kidney ratio): 0.91
tissue to tissue ratio at 2 h (In vivo biodistribution; iv, tumor/kidney ratio): 0.62
tissue to tissue ratio at 5 min (In vivo biodistribution; iv, tumor/muscle ratio): 5
tissue to tissue ratio at 0.5 h (In vivo biodistribution; iv, tumor/muscle ratio): 10.4
tissue to tissue ratio at 1 h (In vivo biodistribution; iv, tumor/muscle ratio): 11.4
tissue to tissue ratio at 2 h (In vivo biodistribution; iv, tumor/muscle ratio): 12.4
tissue uptake at 1 h (In vivo biodistribution; 60 min p.i., blocked with excess non-radiolabeled BN peptide, MDA-MB-231 tumor, mean ± SD, n = 3, read-out: Tumor uptake): 0.66 ± 0.2 %ID/g
tissue uptake at 1 h (In vivo biodistribution; 60 min p.i., blocked with excess non-radiolabeled BN peptide, mean ± SD, n = 3, read-out: Blood uptake): 0.29 ± 0.01 %ID/g
tissue uptake at 1 h (In vivo biodistribution; 60 min p.i., blocked with excess non-radiolabeled BN peptide, mean ± SD, n = 3, read-out: Heart uptake): 0.27 ± 0.11 %ID/g
tissue uptake at 1 h (In vivo biodistribution; 60 min p.i., blocked with excess non-radiolabeled BN peptide, mean ± SD, n = 3, read-out: Intestine uptake): 1.66 ± 0.23 %ID/g
tissue uptake at 1 h (In vivo biodistribution; 60 min p.i., blocked with excess non-radiolabeled BN peptide, mean ± SD, n = 3, read-out: Kidney uptake): 3.18 ± 0.2 %ID/g
tissue uptake at 1 h (In vivo biodistribution; Lung uptake): 0.78 ± 0.02 %ID/g
tissue uptake at 1 h (In vivo biodistribution; Muscle uptake): 0.13 ± 0.1 %ID/g
tissue uptake at 1 h (In vivo biodistribution; Spleen uptake): 0.26 ± 0.03 %ID/g
tissue uptake at 1 h (In vivo biodistribution; Stomach uptake): 0.63 ± 0.1 %ID/g
Liver uptake ([1]; 0.5 h): 0.52 ± 0.13 %IA/g
Stomach uptake ([1]; 0.5 h): 0.91 ± 0.04 %IA/g
Pancreas uptake ([1]; 1 h): 1.98 ± 0.02 %IA/g
Stomach uptake ([1]; 2 h): 0.20 ± 0.01 %IA/g
remaining at 2 h (physchem): 95.5 ± 0.03%
remaining at 4 h (physchem): 95 ± 0.07%
remaining at 6 h (physchem): 93.5 ± 0.12%
remaining at 8 h (physchem): 92.5 ± 0.2%
remaining at 12 h (physchem): 90 ± 0.11%
remaining at 24 h (physchem): 88 ± 0.14%
